These results are taken from patent US20230340137A1 (published 2023).

This experiment concerns the target T1, B-cell maturation antigen (BCMA) (human, UniProt Q02223 1-184).
T1 sequence (looked up): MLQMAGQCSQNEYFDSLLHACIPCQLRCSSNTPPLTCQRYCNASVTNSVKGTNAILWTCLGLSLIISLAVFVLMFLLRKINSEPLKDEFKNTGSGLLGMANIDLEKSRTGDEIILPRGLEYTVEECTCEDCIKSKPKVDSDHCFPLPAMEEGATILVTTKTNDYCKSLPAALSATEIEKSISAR
Put plainly: cell-based or functional assay.

B1: PF-06863135 (bispecific antibody, human IgG2)
heavy 1: EVQLLESGGGLVQPGGSLRLSCAASGFTFSSYPMSWVRQAPGKGLEWVSAIGGSGGSLPYADIVKGRFTISRDNSKNTLYLQMNSLRAEDTAVYYCARYWPMDIWGQGTLVTVSSASTKGPSVFPLAPCSRSTSESTAALGCLVKDYFPEPVTVSWNSGALTSGVHTFPAVLQSSGLYSLSSVVTVPSSNFGTQTYTCNVDHKPSNTKVDKTVERKCEVECPECPAPPVAGPSVFLFPPKPKDTLMISRTPEVTCVVVAVSHEDPEVQFNWYVDGVEVHNAKTKPREEQFNSTFRVVSVLTVVHQDWLNGKEYKCKVSNKGLPSSIEKTISKTKGQPREPQVYTLPPSREEMTKNQVSLTCEVKGFYPSDIAVEWESNGQPENNYKTTPPMLDSDGSFFLYSKLTVDKSRWQQGNVFSCSVMHEALHNHYTQKSLSLSPGK
light 1: EIVLTQSPGTLSLSPGERATLSCRASQSVSSSYLAWYQQKPGQAPRLLMYDASIRATGIPDRFSGSGSGTDFTLTISRLEPEDFAVYYCQQYQSWPLTFGQGTKVEIKRTVAAPSVFIFPPSDEQLKSGTASVVCLLNNFYPREAKVQWKVDNALQSGNSQESVTEQDSKDSTYSLSSTLTLSKADYEKHKVYACEVTHQGLSSPVTKSFNRGEC
heavy 2: EVQLVESGGGLVQPGGSLRLSCAASGFTFSDYYMTWVRQAPGKGLEWVAFIRNRARGYTSDHNPSVKGRFTISRDNAKNSLYLQMNSLRAEDTAVYYCARDRPSYYVLDYWGQGTTVTVSSASTKGPSVFPLAPCSRSTSESTAALGCLVKDYFPEPVTVSWNSGALTSGVHTFPAVLQSSGLYSLSSVVTVPSSNFGTQTYTCNVDHKPSNTKVDKTVERKCRVRCPRCPAPPVAGPSVFLFPPKPKDTLMISRTPEVTCVVVAVSHEDPEVQFNWYVDGVEVHNAKTKPREEQFNSTFRVVSVLTVVHQDWLNGKEYKCKVSNKGLPSSIEKTISKTKGQPREPQVYTLPPSREEMTKNQVSLTCLVKGFYPSDIAVEWESNGQPENNYKTTPPMLDSDGSFFLYSRLTVDKSRWQQGNVFSCSVMHEALHNHYTQKSLSLSPGK
light 2: not shown
As to B1, the “EC50 of cell viability (killing) of H929-Luc cells co-cultured with human CD3+ T cells, 72 hr, luminescence; with GSI” value was 0.0055 nM; the “EC50 of cell viability (killing) of H929-Luc cells co-cultured with human CD3+ T cells, 72 hr, luminescence; without GSI” value was 0.167 nM; the “EC50 of cell viability (killing) of Molp8-Luc cells co-cultured with human CD3+ T cells, 72 hr, luminescence; with GSI” value is 0.0202 nM; the “EC50 of cell viability (killing) of Molp8-Luc cells co-cultured with human CD3+ T cells, 72 hr, luminescence; without GSI” value is 0.108 nM. Also, the “EC50 of cell viability (killing) of OPM2-Luc cells co-cultured with human CD3+ T cells, 72 hr, luminescence; with GSI” value was determined as 0.0033 nM; the “EC50 of cell viability (killing) of OPM2-Luc cells co-cultured with human CD3+ T cells, 72 hr, luminescence; without GSI” value is 0.0528 nM; the “EC50 of cell viability (killing) of RPMI8226-Luc cells co-cultured with human CD3+ T cells, 72 hr, luminescence; with GSI” value came out at 0.0017 nM; the “EC50 of cell viability (killing) of RPMI8226-Luc cells co-cultured with human CD3+ T cells, 72 hr, luminescence; without GSI” value is 0.0092 nM.
